Consider one molecule from publication PMC10526137, “Development of a High-Accuracy, Low-Cost, and Portable Fluorometer with Smartphone Application for the Detection of Urinary Albumin towards the Early Screening of Chronic Kidney and Renal Diseases”.

In this data set the target is human serum albumin (HSA) (Homo sapiens, UniProt P02768 25-609). In words: graphene oxide fluorescence recovery (aptamer release from GO); GO-aptamer complex, PBS pH 7.4, HSA 0.001-1.5 mg/mL; LOD 0.203 ug/mL, no Kd; PBS pH 7.4, room temperature; 15 uL of 5 uM Cy5-H8 + 85 uL GO-PBS (15 uL of 5 mg/mL GO in 70 uL PBS) 5 min in the dark, then 100 uL HSA for 30 min; also artificial urine. The conditions noted are these: protein: commercial; label: 5'-Cy5.
Sequence of human serum albumin (HSA) (P02768 25-609): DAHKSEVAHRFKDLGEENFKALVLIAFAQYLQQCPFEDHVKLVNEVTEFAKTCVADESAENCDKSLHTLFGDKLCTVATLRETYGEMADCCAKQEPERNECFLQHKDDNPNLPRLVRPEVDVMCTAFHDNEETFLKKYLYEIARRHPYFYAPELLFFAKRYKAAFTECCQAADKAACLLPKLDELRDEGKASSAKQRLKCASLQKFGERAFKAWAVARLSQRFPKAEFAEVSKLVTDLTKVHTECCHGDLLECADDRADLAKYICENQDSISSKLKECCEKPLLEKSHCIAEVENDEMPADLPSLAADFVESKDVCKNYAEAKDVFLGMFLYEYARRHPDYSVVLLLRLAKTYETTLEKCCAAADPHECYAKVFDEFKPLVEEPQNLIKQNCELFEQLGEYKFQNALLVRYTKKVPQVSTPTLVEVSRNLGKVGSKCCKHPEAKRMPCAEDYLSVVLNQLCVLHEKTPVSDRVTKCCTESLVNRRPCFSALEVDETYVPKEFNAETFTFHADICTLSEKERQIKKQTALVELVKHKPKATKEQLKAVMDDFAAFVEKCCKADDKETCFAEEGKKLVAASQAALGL

B1: H8 albumin aptamer (ssDNA)
DNA: ATACCAGCTTATTCAATTCCCCCGGCTTTGGTTTAGAGGTAGTTGCTCATTACTTGTACGCTCCGGATGAGATAGTAAGTGCAATCT
B1: the binding result is “binds”.
